T1: GST-Arf1 (Saccharomyces cerevisiae (strain ATCC …, UniProt P11076))
T1 chain: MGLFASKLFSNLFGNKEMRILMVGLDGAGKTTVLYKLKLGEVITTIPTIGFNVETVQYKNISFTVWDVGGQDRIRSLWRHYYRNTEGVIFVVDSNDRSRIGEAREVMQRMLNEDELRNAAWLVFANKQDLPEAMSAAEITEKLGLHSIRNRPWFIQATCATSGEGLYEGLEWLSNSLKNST

B1: S. cerevisiae Sec7f (residues 203-2009) (domain or fragment, UniProt P11075 203-2009, looked up)
chain: PRSTHTRNISLSSNGSNTNSTIILVKTTLETILNDKDIKKNSNAQKAIERTLQKFKEFDPQTTNNPHYVDSILVFEALRASCRTKSSKVQSLALDCLSKLFSFRSLDETLLVNPPDSLASNDQRQDAADGITPPPKQKIIDAAIDTISDCFQGEGTDDRVELQIVRALSSCILEEDSSSLCHGASLLKAIRTIYNVFVFSLNPSNQGIAQATLTQIISSVYDKIDLKQSTSSAVSLSTKNHQQQSAIELSEASENAETPAPLTLENMDKLNDDEERLMDAQQPDSIAITNQDLAVKDAFLVFRVMAKICAKPLETELDMRSHAVRSKLLSLHIIYSIIKDHIDVFLSHNIFLPGKERVCFIDSIRQYLRLVLSRNAASPLAPVFEVTLEIMWLLIANLRADFVKEIPVFLTEIYFPISELTTSTSQQKRYFLSVIQRICNDPRTLVEFYLNYDCNPGMPNVMEITVDYLTRLALTRVEITQTQRSYYDEQISKSLSTYNFSQLPLLTSSNLSSSPDVGQVNLLFPLDFALKMVSLNCIVSVLRSLSSWAHKALNPNTHTANKVLLNTTSSARQESRSSLSNDVRSSIMTSNDDFKPTYEDEESRSLSSQNIDADDPTQFENLKLRKTALSECIAIFNNKPKKAIPVLIKKGFLKDDSPISIAKWLLETEGLDMAAVGDYLGEGDDKNIAIMHAFVDEFDFTGMSIVDALRSFLQSFRLPGEGQKIDRFMLKFAERFVDQNPGVFSKADTAYVLSYSLIMLNTDLHSSQIKNKMSLQEFLENNEGIDNGRDLPRDFLEGLFNEIANNEIKLISEQHQAMLSGDTNLVQQQQSAFNFFNSRDLTREAYNQVSKEISSKTELVFKNLNKNKGGPDVYYAASHVEHVKSIFETLWMSFLAALTPPFKDYDDIDTTNKCLEGLKISIKIASTFRINDARTSFVGALVQFCNLQNLEEIKVKNVNAMVILLEVALSEGNYLEGSWKDILLVVSQMERLQLISKGIDRDTVPDVAQARVANPRVSYESSRSNNTSFFDVWGKKATPTELAQEKHHNQTLSPEISKFISSSELVVLMDNIFTKSSELSGNAIVDFIKALTAVSLEEIESSENASTPRMFSLQKMVDVCYYNMDRIKLEWTPLWAVMGKAFNKIATNSNLAVVFFAIDSLRQLSMRFLDIEELSGFEFQHDFLKPFEYTVQNSGNTEVQEMIIECFRNFILTKSESIKSGWKPILESLQYTARSSTESIVLKTQLLVSNDIVTNHFENVFSQEDAFSELVGVFREITKNKRFQKLSLHALESLRKMTQNVADICFYNENKTEEERKHNDALLRGKDIFQDVWFPMLFCFNDTIMTAEDLEVRSRALNYMFDALVAYGGKFNDDFWEKICKKLLFPIFGVLSKHWEVNQFNSHDDLSVWLSTTLIQALRNLIALFTHYFESLNRMLDGFLGLLVSCICQENDTIARIGRSCLQQLILQNVSKFNEYHWNQIGDVFDKLFDLTTANELFDYDPLQQGRKSSVSHHQTTNDTSQHSDDDSNDRRENDSNISETVERAHQEESSEDVGGDMVETLNGQTKLNNGNSVPTVKDELNPKPASLSIPKKTKHMKRNESNEDIRRRINIKNSIVVKCVLQLLMIELLNELFENEDFAHCIPYKEAIRITRLLEKSYEFSRDFNEDYGLRTRLVEARVVDKIPNLLKQETSAAAVLLDIMFQLYLNDDEKKADLITRLITICIQVVEGYVSLDDRTMERSINAWRSVIVEILQGYYEFDDEDFRLYCPAMYALVIQILDKSVPTELRHAIKQFLSRVGELYLSTD
notes: Sec7 (Arf-GEF) of S. cerevisiae, residues 203-2009; source: E. coli, purified (Ni-NTA, MonoQ, Superdex 200)
B2: S. cerevisiae Sec7 DCB/HUS domain construct (domain or fragment)
chain: PRSTHTRNISLSSNGSNTNSTIILVKTTLETILNDKDIKKNSNAQKAIERTLQKFKEFDPQTTNNPHYVDSILVFEALRASCRTKSSKVQSLALDCLSKLFSFRSLDETLLVNPPDSLASNDQRQDAADGITPPPKQKIIDAAIDTISDCFQGEGTDDRVELQIVRALSSCILEEDSSSLCHGASLLKAIRTIYNVFVFSLNPSNQGIAQATLTQIISSVYDKIDLKQSTSSAVSLSTKNHQQQSAIELSEASENAETPAPLTLENMDKLNDDEERLMDAQQPDSIAITNQDLAVKDAFLVFRVMAKICAKPLETELDMRSHAVRSKLLSLHIIYSIIKDHIDVFLSHNIFLPGKERVCFIDSIRQYLRLVLSRNAASPLAPVFEVTLEIMWLLIANLRADFVKEIPVFLTEIYFPISELTTSTSQQKRYFLSVIQRICNDPRTLVEFYLNYDCNPGMPNVMEITVDYLTRLALTRVEITQTQRSYYDEQISKSLSTYNFSQLPLLTSSNLSSSPDVGQVNLLFPLDFALKMVSLNCIVSVLRSLSSWAHKALNPNTHTANKVLLNTTSSARQESRSSLSNDVRSSIMTSNDDFKPTYEDEESRSLSSQNIDADDPTQFEN
B3: S. cerevisiae Sec7ΔC (residues 203-1017) (domain or fragment, UniProt P11075 203-1017, looked up)
chain: PRSTHTRNISLSSNGSNTNSTIILVKTTLETILNDKDIKKNSNAQKAIERTLQKFKEFDPQTTNNPHYVDSILVFEALRASCRTKSSKVQSLALDCLSKLFSFRSLDETLLVNPPDSLASNDQRQDAADGITPPPKQKIIDAAIDTISDCFQGEGTDDRVELQIVRALSSCILEEDSSSLCHGASLLKAIRTIYNVFVFSLNPSNQGIAQATLTQIISSVYDKIDLKQSTSSAVSLSTKNHQQQSAIELSEASENAETPAPLTLENMDKLNDDEERLMDAQQPDSIAITNQDLAVKDAFLVFRVMAKICAKPLETELDMRSHAVRSKLLSLHIIYSIIKDHIDVFLSHNIFLPGKERVCFIDSIRQYLRLVLSRNAASPLAPVFEVTLEIMWLLIANLRADFVKEIPVFLTEIYFPISELTTSTSQQKRYFLSVIQRICNDPRTLVEFYLNYDCNPGMPNVMEITVDYLTRLALTRVEITQTQRSYYDEQISKSLSTYNFSQLPLLTSSNLSSSPDVGQVNLLFPLDFALKMVSLNCIVSVLRSLSSWAHKALNPNTHTANKVLLNTTSSARQESRSSLSNDVRSSIMTSNDDFKPTYEDEESRSLSSQNIDADDPTQFENLKLRKTALSECIAIFNNKPKKAIPVLIKKGFLKDDSPISIAKWLLETEGLDMAAVGDYLGEGDDKNIAIMHAFVDEFDFTGMSIVDALRSFLQSFRLPGEGQKIDRFMLKFAERFVDQNPGVFSKADTAYVLSYSLIMLNTDLHSSQIKNKMSLQEFLENNEGIDNGRDLPRDFLEGLFNEIANNEIKLISEQH
notes: Sec7 of S. cerevisiae, residues 203-1017 (DCB/HUS and GEF domains); also called Sec7(203-1017); construct lacking the HDS1-4 domains with the GEF domain; source: E. coli, purified (Ni-NTA, MonoQ, Superdex 200)
B4: S. cerevisiae Gea2 full-length (natural protein, UniProt P39993 1-1459, looked up)
chain: MSDREFVTVDPVTIIIKECINLSTAMRKYSKFTSQSGVAALLGGGSEIFSNQDDYLAHTFNNLNTNKHNDPFLSGFIQLRLMLNKLKNLDNIDSLTILQPFLLIVSTSSISGYITSLALDSLQKFFTLNIINESSQNYIGAHRATVNALTHCRFEGSQQLSDDSVLLKVVFLLRSIVDSPYGDLLSNSIIYDVLQTILSLACNNRRSEVLRNAAQSTMIAVTVKIFSKLKTIEPVNVNQIYINDESYTNDVLKADTIGTNVESKEEGSQEDPIGMKVNNEEAISEDDGIEEEHIHSEKSTNGAEQLDIVQKTTRSNSRIQAYADDNYGLPVVRQYLNLLLSLIAPENELKHSYSTRIFGLELIQTALEISGDRLQLYPRLFTLISDPIFKSILFIIQNTTKLSLLQATLQLFTTLVVILGNNLQLQIELTLTRIFSILLDDGTANNSSSENKNKPSIIKELLIEQISILWTRSPSFFTSTFINFDCNLDRADVSINFLKALTKLALPESALTTTESVPPICLEGLVSLVDDMFDHMKDIDREEFGRQKNEMEILKKRDRKTEFIECTNAFNEKPKKGIPMLIEKGFIASDSDKDIAEFLFNNNNRMNKKTIGLLLCHPDKVSLLNEYIRLFDFSGLRVDEAIRILLTKFRLPGESQQIERIIEAFSSAYCENQDYDPSKISDNAEDDISTVQPDADSVFILSYSIIMLNTDLHNPQVKEHMSFEDYSGNLKGCCNHKDFPFWYLDRIYCSIRDKEIVMPEEHHGNEKWFEDAWNNLISSTTVITEIKKDTQSVMDKLTPLELLNFDRAIFKQVGPSIVSTLFNIYVVASDDHISTRMITSLDKCSYISAFFDFKDLFNDILNSIAKGTTLINSSHDDELSTLAFEYGPMPLVQIKFEDTNTEIPVSTDAVRFGRSFKGQLNTVVFFRIIRRNKDPKIFSKELWLNIVNIILTLYEDLILSPDIFPDLQKRLKLSNLPKPSPEISINKSKESKGLLSTFASYLKGDEEPTEEEIKSSKKAMECIKSSNIAASVFGNESNITADLIKTLLDSAKTEKNADNSRYFEAELLFIIELTIALFLFCKEEKELGKFILQKVFQLSHTKGLTKRTVRRMLTYKILLISLCADQTEYLSKLINDELLKKGDIFTQKFFATNQGKEFLKRLFSLTESEFYRGFLLGNENFWKFLRKVTAMKEQSESIFEYLNESIKTDSNILTNENFMWVLGLLDEISSMGAVGNHWEIEYKKLTESGHKIDKENPYKKSIELSLKSIQLTSHLLEDNNDLRKNEIFAIIQALAHQCINPCKQISEFAVVTLEQTLINKIEIPTNEMESVEELIEGGLLPLLNSSETQEDQKILISSILTIISNVYLHYLKLGKTSNETFLKILSIFNKFVEDSDIEKKLQQLILDKKSIEKGNGSSSHGSAHEQTPESNDVEIEATAPIDDNTDDDNKPKLSDVEKD
notes: Gea2, early-Golgi Arf-GEF of S. cerevisiae, full length

Legend:
[1] = molecular target: construct corresponding to a predicted coiled-coil from the HDS4 domain of Sec7; assay: SEC-MALS; 5 mg/ml, Wyatt WTC-050S5 gel filtration column with DAWN HELEOS-II and Optilab T-rEX detectors, room temperature; measured mass compared with that predicted from the sequence
[2] = molecular target: full-length T. terrestris Sec7 (T. terrestris); assay: as above
[3] = molecular target: the molecule itself; assay: as above
[4] = molecular target: T1, GST-Arf1; assay: GST pulldown (also liposome pelleting); Arf1 loaded with GMPPNP or GDP; no stable nucleotide-dependent interaction seen (Arf1 is nevertheless a GEF substrate of Sec7ΔC)

| Molecule | stoichiometry N [3] | also measured |
| --- | --- | --- |
| construct corresponding to a predicted coiled-coil from the HDS4 domain of Sec7 (domain or fragment) |  | stoichiometry N [1]: 2 |
| full-length T. terrestris Sec7 (natural protein) |  | stoichiometry N [2]: 2 |
| B1 | 2 |  |
| B2 | 2 |  |
| B3 | 2 | binding result [4]: no binding |
| B4 | 2 |  |
